{"source": "paper PMC4789156", "about": "(Translational research : the journal of laboratory and …, 2015)", "binders": {"B1": {"name": "M10 peptide (caspase-3 cleavage product of the hepatocyte growth factor receptor MET) (peptide)", "peptide": "TRPASFWETS"}}, "biological_target": "Recombinant human Smad2 with C-terminal MYC/DDK tag (human, UniProt Q15796-1 1-467)", "sequence (Q15796 whole entry)": "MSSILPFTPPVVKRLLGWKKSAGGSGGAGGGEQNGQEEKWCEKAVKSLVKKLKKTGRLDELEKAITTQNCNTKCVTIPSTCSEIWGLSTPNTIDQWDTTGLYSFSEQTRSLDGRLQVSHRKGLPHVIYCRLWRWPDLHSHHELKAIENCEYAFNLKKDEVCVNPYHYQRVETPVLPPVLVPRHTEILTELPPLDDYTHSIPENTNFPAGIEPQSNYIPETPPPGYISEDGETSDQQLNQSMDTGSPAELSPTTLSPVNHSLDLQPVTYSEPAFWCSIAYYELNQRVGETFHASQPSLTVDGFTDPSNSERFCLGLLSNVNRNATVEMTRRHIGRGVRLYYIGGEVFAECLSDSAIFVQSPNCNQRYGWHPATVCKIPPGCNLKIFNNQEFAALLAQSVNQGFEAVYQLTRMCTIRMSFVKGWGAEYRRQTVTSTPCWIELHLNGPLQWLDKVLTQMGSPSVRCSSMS", "experiment": "co-IP", "data": [{"binder": "B1", "values": [{"measurement": "binding result", "result": "binds"}]}]}
